Laboratory results as given in the Immune Epitope Database (IEDB).

What was measured:
HLA-A*03:01 [1] = assay: IEDB peptide-MHC binding, purified MHC/direct/fluorescence; filed as Kd, often an IC50 or EC50 that approximates it; ≥ and ≤ were set here for values at or beyond the usual limits of such assays
HLA-A*02:16 = assay: as above
HLA-A*02:12 [2] = assay: as above
HLA-A*02:19 [3] = assay: as above
HLA-B*35:01 = assay: as above
HLA-B*07:02 = assay: as above
HLA-B*18:01 [4] = assay: as above
HLA-B*27:03 [5] = assay: as above
HLA-B*57:01 [6] = assay: as above
HLA-B*46:01 [7] = assay: as above
HLA-A*02:03 = assay: as above
HLA-A*02:11 = assay: as above
HLA-B*15:01 [8] = assay: as above
HLA-B*39:01 [9] = assay: as above
HLA-A*02:01 = assay: as above
HLA-B*51:01 [10] = assay: as above
HLA-A*24:03 = assay: as above
HLA-A*69:01 = assay: as above
HLA-A*26:01 [11] = assay: as above
HLA-A*68:02 [12] = assay: IEDB peptide-MHC binding, purified MHC/competitive/fluorescence; filed as Kd, often an IC50 or EC50 that approximates it; ≥ and ≤ were set here for values at or beyond the usual limits of such assays
HLA-B*57:01 [13] = assay: IEDB peptide-MHC binding, purified MHC/competitive/radioactivity; filed as Kd, often an IC50 or EC50 that approximates it; ≥ and ≤ were set here for values at or beyond the usual limits of such assays
HLA-B*15:01 [14] = assay: as above; conditions: source organism: Dengue virus 2 Jamaica/1409/1983
HLA-A*03:01 [15] = assay: IEDB peptide-MHC binding, purified MHC/competitive/fluorescence; filed as Kd, often an IC50 or EC50 that approximates it; ≥ and ≤ were set here for values at or beyond the usual limits of such assays; conditions: source organism: Cryptosporidium parvum Iowa II
HLA-A*02:12 [16] = assay: as above; conditions: source organism: Cryptosporidium parvum Iowa II
HLA-A*29:02 [17] = assay: as above; conditions: source organism: Cryptosporidium parvum Iowa II
HLA-A*02:19 [18] = assay: as above; conditions: source organism: Cryptosporidium parvum Iowa II
HLA-B*18:01 [19] = assay: as above; conditions: source organism: Cryptosporidium parvum Iowa II
HLA-B*27:03 [20] = assay: as above; conditions: source organism: Cryptosporidium parvum Iowa II
HLA-B*46:01 [21] = assay: as above; conditions: source organism: Cryptosporidium parvum Iowa II
HLA-B*39:01 [22] = assay: as above; conditions: source organism: Cryptosporidium parvum Iowa II
HLA-B*51:01 [23] = assay: as above; conditions: source organism: Cryptosporidium parvum Iowa II
HLA-A*26:01 [24] = assay: as above; conditions: source organism: Cryptosporidium parvum Iowa II
HLA-A*01:01 = assay: as above; conditions: source organism: Influenza A virus (A/swine/Finistere/127/99(H3N2))
HLA-A*29:02 [25] = assay: IEDB peptide-MHC binding, purified MHC/direct/fluorescence; filed as Kd, often an IC50 or EC50 that approximates it; ≥ and ≤ were set here for values at or beyond the usual limits of such assays; conditions: source organism: Burkholderia mallei ATCC 23344
HLA-B*15:17 = assay: as above; conditions: source organism: Burkholderia mallei ATCC 23344
HLA-A*68:02 [26] = assay: as above
HLA-A*68:02 [27] = assay: IEDB peptide-MHC binding, purified MHC/competitive/radioactivity; filed as Kd, often an IC50 or EC50 that approximates it; ≥ and ≤ were set here for values at or beyond the usual limits of such assays; conditions: source organism: Dengue virus 1 Brazil/97-11/1997
[28] = source organism: Vibrio parahaemolyticus AQ3810
[29] = source organism: Mycobacterium tuberculosis str. Haarlem
[30] = source organism: Dengue virus 2 Jamaica/1409/1983
[31] = source organism: Cryptosporidium parvum Iowa II
[32] = source organism: Burkholderia mallei ATCC 23344
[33] = source organism: Burkholderia mallei

Measured: Kd

EASTWLDIF
174 nM: HLA-B*15:01 [8]; [28]
≥ 20 µM: HLA-A*03:01 [1]; [28] | HLA-A*02:16; [28] | HLA-A*02:12 [2]; [28] | HLA-A*02:19 [3]; [28] | HLA-B*07:02; [28] | HLA-B*18:01 [4]; [28] | HLA-B*27:03 [5]; [28] | HLA-B*57:01 [6]; [28] | HLA-B*46:01 [7]; [28] | HLA-A*02:03; [28] | HLA-A*02:11; [28] | HLA-B*39:01 [9]; [28] | HLA-A*02:01; [28] | HLA-B*51:01 [10]; [28] | HLA-A*24:03; [28] | HLA-A*69:01; [28] | HLA-A*26:01 [11]; [28]
16 nM: HLA-B*35:01; [28]

EILWDVIPF
6.5 µM: HLA-B*07:02; [29]
191 nM: HLA-B*15:01 [8]; [29]
≥ 20 µM: HLA-A*03:01 [1]; [29] | HLA-A*02:16; [29] | HLA-A*02:12 [2]; [29] | HLA-A*02:19 [3]; [29] | HLA-B*27:03 [5]; [29] | HLA-B*57:01 [6]; [29] | HLA-B*46:01 [7]; [29] | HLA-A*02:03; [29] | HLA-B*39:01 [9]; [29] | HLA-A*02:01; [29] | HLA-B*51:01 [10]; [29] | HLA-A*24:03; [29] | HLA-A*26:01 [11]; [29]
3 nM: HLA-B*35:01; [29]

ESAEVEVYV
≤ 0.1 nM: HLA-A*68:02 [12]; source organism: Vibrio vulnificus YJ016

ISQGAGWSL
472 nM: HLA-B*57:01 [13]; [30]

ISRMLINRF
178 nM: HLA-B*15:01 [14]
15.9 nM: HLA-B*57:01 [13]; [30]

KIVPLPPMY
≥ 20 µM: HLA-A*02:12 [16] | HLA-A*02:19 [18] | HLA-B*18:01 [19] | HLA-B*27:03 [20] | HLA-B*46:01 [21] | HLA-B*39:01 [22] | HLA-B*51:01 [23] | HLA-A*26:01 [24]
277 nM: HLA-A*29:02 [17]
796 nM: HLA-A*03:01 [15]

LASIDLKY
3.46 µM: HLA-A*01:01

LPLESCFGV
0.355 µM: HLA-B*51:01 [10]; [31]
≥ 20000 nM: HLA-B*15:01 [8]; [31]
≥ 20 µM: HLA-A*03:01 [1]; [31] | HLA-A*02:12 [2]; [31] | HLA-A*02:19 [3]; [31] | HLA-B*18:01 [4]; [31] | HLA-B*27:03 [5]; [31] | HLA-B*57:01 [6]; [31] | HLA-B*46:01 [7]; [31] | HLA-A*02:03; [31] | HLA-A*02:11; [31] | HLA-A*24:03; [31] | HLA-A*26:01 [11]; [31]

LTSRENLLLG
541 nM: HLA-B*57:01 [13]; source organism: Dengue virus 3 Martinique/1243/1999

QHAWPLPPL
≥ 20000 nM: HLA-B*15:01 [8]; [32]
≥ 20 µM: HLA-A*03:01 [1]; [32] | HLA-A*02:16; [32] | HLA-A*02:12 [2]; [32] | HLA-A*29:02 [25] | HLA-A*02:19 [3]; [32] | HLA-B*18:01 [4]; [32] | HLA-B*15:17 | HLA-B*27:03 [5]; [32] | HLA-B*57:01 [6]; [32] | HLA-B*46:01 [7]; [32] | HLA-A*68:02 [26]; [32] | HLA-A*02:03; [32] | HLA-A*02:01; [32] | HLA-B*51:01 [10]; [32] | HLA-A*26:01 [11]; [32]

QTSGTTTIFA
2.12 nM: HLA-A*68:02 [27]
454 nM: HLA-B*57:01 [13]; source organism: Dengue virus 1 Brazil/97-11/1997

RVVRPWGSY
≥ 20 µM: HLA-A*02:16; [33] | HLA-A*02:12 [2]; [33] | HLA-A*02:19 [3]; [33] | HLA-B*18:01 [4]; [33] | HLA-B*27:03 [5]; [33] | HLA-B*46:01 [7]; [33] | HLA-A*68:02 [26]; [33] | HLA-A*02:03; [33] | HLA-A*02:11; [33] | HLA-B*39:01 [9]; [33] | HLA-A*02:01; [33] | HLA-B*51:01 [10]; [33] | HLA-A*24:03; [33] | HLA-A*69:01; [33] | HLA-A*26:01 [11]; [33]

STYWLMAGL
0.5 nM: HLA-A*68:02 [12]; source organism: Yersinia pestis Nepal516
